In assay [1] the target is T1, FcγRIa (human, UniProt P12314 16-292).
T1 construct: extracellular domain; also called FcgRI; 1a; not shown: His tag at the C terminus
Put plainly: SPR (Biacore), antibody captured, FcγR as analyte; binding as % of GpH7-A5/GpH7-B3/GpL16-k0.

Assay [2] addresses T2, FcγRIIb (human, UniProt P31994 43-217).
T2 construct: extracellular domain; also called FcgRIIb; 2b; not shown: His tag at the C terminus
T2 sequence (looked up): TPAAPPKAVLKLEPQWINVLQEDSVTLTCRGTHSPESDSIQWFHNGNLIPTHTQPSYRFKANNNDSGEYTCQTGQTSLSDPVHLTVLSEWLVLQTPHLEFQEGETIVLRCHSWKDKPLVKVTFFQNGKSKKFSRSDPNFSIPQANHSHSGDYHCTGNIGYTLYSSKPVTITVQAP
The description is as above.

The target of assay [3] is T1, FcγRIa. Description: SPR (Biacore); He/Con_1a (FcγRIa) divided by He/Con_2b (FcγRIIb).
Assay [4] deals with T3, FcγRIIIa extracellular domain with C-terminal His tag (human, UniProt P08637 17-208).
T3 construct: extracellular domain; also called FcgRIIIa; 3a; not shown: His tag at the C terminus
T3 sequence (P08637 17-208): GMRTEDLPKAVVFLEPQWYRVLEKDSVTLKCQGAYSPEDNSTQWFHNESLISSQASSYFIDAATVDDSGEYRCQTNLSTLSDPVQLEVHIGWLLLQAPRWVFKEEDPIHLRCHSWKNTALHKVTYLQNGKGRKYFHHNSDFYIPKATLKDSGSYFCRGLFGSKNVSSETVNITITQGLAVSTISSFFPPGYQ
Description: SPR; He/Con_3a divided by He/Con_2b (FcγRIIIa over FcγRIIb). As to the method: (§1) Analysis of interaction between objective antibody and the FcγR was carried out using Biacore T100 (GE Healthcare). HBS-EP+ (GE Healthcare) was used as the running buffer, and the measurement temperature was set to 25° C. Chips produced by immobilizing the antigen peptide by the amine coupling method to a Series S Sencor Chip CM5 (GE Healthcare), or alternatively, chips produced by allowing preliminarily biotinylated antigen peptides to interact with and immobilize onto a Series S Sensor Chip SA (certified) (GE Healthcare) were used. Antibodies of interest were captured onto an antigen peptide-immobilized chip, and allowed to interact to each FcγR diluted with running buffer. To regenerate and repeatedly use the chip, the antibodies captured on the chip were washed off by reacting 10 mM glycine-HCl, pH 1.5.
(§2) The FcγR-binding activity of each antibody was assessed primarily using as an indicator the FcγR-binding activity and dissociation constant for FcγR.

The target of assay [5] is T3, FcγRIIIa extracellular domain with …. Put plainly: SPR (Biacore), antibody captured on antigen peptide chip, FcγR as analyte. As to the method: as §1, §2
In general terms: In SPR one partner is held on a chip, and binding of the other changes the refractive index at the surface.

The target in assay [6] is T4, FcγRIIb extracellular domain with C-terminal His tag (human, UniProt P31994 43-217).
T4 construct: extracellular domain; Soluble receptor expressed in FreeStyle293 cells, used as analyte in Biacore; also called FcgRIIb; 2b; not shown: His tag at the C terminus
T4 sequence (looked up): T2 sequence (looked up)
The description is as above. As to the method: as §1, §2

This is an account of results in US20180155451A1 (published 2018).

T1 sequence (P12314 16-292): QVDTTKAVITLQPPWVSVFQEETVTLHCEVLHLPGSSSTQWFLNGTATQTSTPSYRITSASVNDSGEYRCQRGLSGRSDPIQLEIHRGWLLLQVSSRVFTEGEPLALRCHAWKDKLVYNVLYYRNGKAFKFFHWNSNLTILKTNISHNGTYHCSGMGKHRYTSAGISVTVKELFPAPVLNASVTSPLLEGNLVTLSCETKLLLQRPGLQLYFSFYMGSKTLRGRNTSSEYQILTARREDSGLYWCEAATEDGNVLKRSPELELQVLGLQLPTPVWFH

B1: GpH7-A5/GpH7-B3 variant A327_09D/GpL16-k0 (antibody, human IgG1, kappa)
heavy 1: not shown
heavy 2: not shown
light: DIVMTQSPLSLPVTPGEPASISCQASESLVHSNRNTYLHWYLQKPGQSPQLLIYKVSNRFSGVPDRFSGSGSGTDFTLKISRVEAEDVGVYYCSQNTHVPPTFGQGTKVEIERTVAAPSVFIFPPSDEQLKSGTASVVCLLNNFYPREAKVQWKVDNALQSGNSQESVTEQDSKDSTYSLSSTLTLSKADYEKHKVYACEVTHQGLSSPVTKSFNRGEC
notes: heterodimerized IgG1; alteration in the GpH7-B3 H chain only; also called He Ab
For B1, the He/Con_1a in assay [1] is 103 % of control. Further, the He/Con_2b in assay [2] is 172 % of control. In addition, the “Ia/IIb He_1a/2b” value in assay [3] was found to be 0.6 ratio.

B2: GpH7-A5/GpH7-B3 variant P331_03V/GpL16-k0 (antibody, human IgG1, kappa)
heavy 1: not shown
heavy 2: not shown
light: B1 light
notes: Heterodimerized anti-glypican-3 IgG1; P331V (EU) only in the GpH7-B3 chain; also called He Ab
As for B2, the “He_3a/2b (IIIa/IIb)” value in assay [4] was found to be 0.62 ratio. In addition, the He/Con_3a in assay [5] was 73.2 relative binding (GpH7-A5/GpH7-B3/GpL16-k0 = 100). In addition, the He/Con_2b in assay [6] was 119 relative binding (GpH7-A5/GpH7-B3/GpL16-k0 = 100).

B3: GpH7-A5/GpH7-B3 variant P331_06M/GpL16-k0 (antibody, human IgG1, kappa)
heavy 1: not shown
heavy 2: not shown
light: B1 light
notes: Heterodimerized anti-glypican-3 IgG1; P331M (EU) only in the GpH7-B3 chain; also called He Ab
As to B3, the “He_3a/2b (IIIa/IIb)” value in assay [4] turned out to be 0.74 ratio. The He/Con_3a in assay [5] was 74.8 relative binding (GpH7-A5/GpH7-B3/GpL16-k0 = 100). The He/Con_2b in assay [6] was 102 relative binding (GpH7-A5/GpH7-B3/GpL16-k0 = 100).

B4: GpH7-A5/GpH7-B3 variant P331_14T/GpL16-k0 (antibody, human IgG1, kappa)
heavy 1: not shown
heavy 2: not shown
light: B1 light
notes: Heterodimerized anti-glypican-3 IgG1; P331T (EU) only in the GpH7-B3 chain; also called He Ab
For B4, the “He_3a/2b (IIIa/IIb)” value in assay [4] is 0.74 ratio. Moreover, the He/Con_3a in assay [5] is 74.1 relative binding (GpH7-A5/GpH7-B3/GpL16-k0 = 100). Also, the He/Con_2b in assay [6] was 99.8 relative binding (GpH7-A5/GpH7-B3/GpL16-k0 = 100).

B5: GpH7-A5/GpH7-B3 variant L328_13S/GpL16-k0 (antibody, human IgG1, kappa)
heavy 1: not shown
heavy 2: not shown
light: B1 light
notes: Heterodimerized anti-glypican-3 IgG1; L328S (EU) only in the GpH7-B3 chain; also called He Ab
With B5, the “He_3a/2b (IIIa/IIb)” value in assay [4] was 0.48 ratio. Also, the He/Con_3a in assay [5] was 71.7 relative binding (GpH7-A5/GpH7-B3/GpL16-k0 = 100). The He/Con_2b in assay [6] is 149 relative binding (GpH7-A5/GpH7-B3/GpL16-k0 = 100).

B6: GpH7-A5/GpH7-B3 variant A330_05P/GpL16-k0 (antibody, human IgG1, kappa)
heavy 1: not shown
heavy 2: not shown
light: B1 light
notes: as for B1
Regarding B6, the He/Con_1a in assay [1] was 101 % of control. Moreover, in assay [2], the He/Con_2b was 137 % of control. In assay [3], the “Ia/IIb He_1a/2b” value came out at 0.74 ratio.

B7: GpH7-A5/GpH7-B3 variant L328_15Y/GpL16-k0 (antibody, human IgG1, kappa)
heavy 1: not shown
heavy 2: not shown
light: B1 light
notes: Heterodimerized anti-glypican-3 IgG1; L328Y (EU) only in the GpH7-B3 chain; also called He Ab
Regarding B7, the “He_3a/2b (IIIa/IIb)” value in assay [4] was 0.35 ratio. In addition, the He/Con_3a in assay [5] was 68.3 relative binding (GpH7-A5/GpH7-B3/GpL16-k0 = 100). For the same molecule, in assay [6], the He/Con_2b was 193 relative binding (GpH7-A5/GpH7-B3/GpL16-k0 = 100).

B8: GpH7-A5/GpH7-B3 variant I332_10E/GpL16-k0 (antibody, human IgG1, kappa)
heavy 1: not shown
heavy 2: not shown
light: B1 light
notes: as for B1
Regarding B8, the He/Con_1a in assay [1] was 96.3 % of control. For the same molecule, the He/Con_2b in assay [2] was 142 % of control. Also, in assay [3], the “Ia/IIb He_1a/2b” value turned out to be 0.68 ratio.

B9: GpH7-A5/GpH7-B3 variant P331_18N/GpL16-k0 (antibody, human IgG1, kappa)
heavy 1: not shown
heavy 2: not shown
light: B1 light
notes: Heterodimerized anti-glypican-3 IgG1; P331N (EU) only in the GpH7-B3 chain; also called He Ab
Take B9: the “He_3a/2b (IIIa/IIb)” value in assay [4] was determined as 0.74 ratio. The He/Con_3a in assay [5] is 73.4 relative binding (GpH7-A5/GpH7-B3/GpL16-k0 = 100). In addition, the He/Con_2b in assay [6] is 99.2 relative binding (GpH7-A5/GpH7-B3/GpL16-k0 = 100).

B10: GpH7-A5/GpH7-B3 variant L328_19Q/GpL16-k0 (antibody, human IgG1, kappa)
heavy 1: not shown
heavy 2: not shown
light: B1 light
notes: Heterodimerized anti-glypican-3 IgG1; L328Q (EU) only in the GpH7-B3 chain; also called He Ab
Regarding B10, in assay [4], the “He_3a/2b (IIIa/IIb)” value is 0.77 ratio. In assay [5], the He/Con_3a was 81.1 relative binding (GpH7-A5/GpH7-B3/GpL16-k0 = 100). Moreover, in assay [6], the He/Con_2b is 105 relative binding (GpH7-A5/GpH7-B3/GpL16-k0 = 100).

B11: GpH7-A5/GpH7-B3 variant L328_18N/GpL16-k0 (antibody, human IgG1, kappa)
heavy 1: not shown
heavy 2: not shown
light: B1 light
notes: Heterodimerized anti-glypican-3 IgG1; L328N (EU) only in the GpH7-B3 chain; also called He Ab
On to B11, for which, in assay [4], the “He_3a/2b (IIIa/IIb)” value was determined as 0.61 ratio. Further, the He/Con_3a in assay [5] is 49.7 relative binding (GpH7-A5/GpH7-B3/GpL16-k0 = 100). In addition, in assay [6], the He/Con_2b is 80.8 relative binding (GpH7-A5/GpH7-B3/GpL16-k0 = 100).

B12: GpH7-A5/GpH7-B3 variant P331_15Y/GpL16-k0 (antibody, human IgG1, kappa)
heavy 1: not shown
heavy 2: not shown
light: B1 light
notes: Heterodimerized anti-glypican-3 IgG1; P331Y (EU) only in the GpH7-B3 chain; also called He Ab
Take B12: the “He_3a/2b (IIIa/IIb)” value in assay [4] came out at 0.72 ratio. Further, the He/Con_3a in assay [5] was 81.9 relative binding (GpH7-A5/GpH7-B3/GpL16-k0 = 100). The He/Con_2b in assay [6] is 114 relative binding (GpH7-A5/GpH7-B3/GpL16-k0 = 100).

B13: GpH7-A5/GpH7-B3 variant L328_16H/GpL16-k0 (antibody, human IgG1, kappa)
heavy 1: not shown
heavy 2: not shown
light: B1 light
notes: Heterodimerized anti-glypican-3 IgG1; L328H (EU) only in the GpH7-B3 chain; also called He Ab
For the molecule B13, the “He_3a/2b (IIIa/IIb)” value in assay [4] is 0.67 ratio. The He/Con_3a in assay [5] is 54.3 relative binding (GpH7-A5/GpH7-B3/GpL16-k0 = 100). Also, the He/Con_2b in assay [6] is 80.6 relative binding (GpH7-A5/GpH7-B3/GpL16-k0 = 100).

B14: GpH7-A5/GpH7-B3 variant P331_08L/GpL16-k0 (antibody, human IgG1, kappa)
heavy 1: not shown
heavy 2: not shown
light: B1 light
notes: Heterodimerized anti-glypican-3 IgG1; P331L (EU) only in the GpH7-B3 chain; also called He Ab
As to B14, in assay [4], the “He_3a/2b (IIIa/IIb)” value stood at 0.75 ratio. For the same molecule, the He/Con_3a in assay [5] was 72.1 relative binding (GpH7-A5/GpH7-B3/GpL16-k0 = 100). Moreover, in assay [6], the He/Con_2b is 95.7 relative binding (GpH7-A5/GpH7-B3/GpL16-k0 = 100).

B15: GpH7-A5/GpH7-B3 variant P331_11K/GpL16-k0 (antibody, human IgG1, kappa)
heavy 1: not shown
heavy 2: not shown
light: B1 light
notes: Heterodimerized anti-glypican-3 IgG1; P331K (EU) only in the GpH7-B3 chain; also called He Ab
For the molecule B15, the “He_3a/2b (IIIa/IIb)” value in assay [4] was determined as 0.8 ratio. The He/Con_3a in assay [5] is 67.5 relative binding (GpH7-A5/GpH7-B3/GpL16-k0 = 100). Further, the He/Con_2b in assay [6] is 84.7 relative binding (GpH7-A5/GpH7-B3/GpL16-k0 = 100).
